Reference: patent publication US20090036365A1 (DYAX, published 2009)

Assays:
human plasmin [1] = molecular target: T1, human plasmin (human, UniProt P00747 97-810, limits assumed); assay: inhibition of plasmin hydrolysis of a fluorogenic substrate, tight-binding fit; measured Ki used as KD
T1 construct: also called plasmin-beads; plasmin-agarose beads

human plasmin [2] = molecular target: T1, human plasmin; assay: binding of clonally pure display phage to plasmin relative to BPTI display phage
human plasmin [3] = molecular target: T1, human plasmin; assay: preliminary plasmin inhibition test; measured Ki used as KD
human plasmin [4] = molecular target: T1, human plasmin; assay: display phage binding to protease beads
human plasmin [5] = molecular target: T1, human plasmin; assay: display phage binding to immobilised protease
Thrombin = assay: display phage binding to immobilised protease
Kallikrein = assay: display phage binding to immobilised protease
Sequence of Kallikrein (P03952 20-390, chain 1 of 2): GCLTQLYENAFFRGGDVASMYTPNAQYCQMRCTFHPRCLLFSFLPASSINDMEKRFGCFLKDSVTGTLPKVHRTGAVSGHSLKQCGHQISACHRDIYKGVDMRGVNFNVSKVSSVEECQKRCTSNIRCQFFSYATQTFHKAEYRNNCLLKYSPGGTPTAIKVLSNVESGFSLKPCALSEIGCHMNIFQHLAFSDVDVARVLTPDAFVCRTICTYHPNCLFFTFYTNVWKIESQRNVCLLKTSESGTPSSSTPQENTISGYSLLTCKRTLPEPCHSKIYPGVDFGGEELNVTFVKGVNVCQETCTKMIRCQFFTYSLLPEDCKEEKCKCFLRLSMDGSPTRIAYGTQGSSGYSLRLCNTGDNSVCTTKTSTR
Sequence of Kallikrein (P03952 391-638, chain 2 of 2): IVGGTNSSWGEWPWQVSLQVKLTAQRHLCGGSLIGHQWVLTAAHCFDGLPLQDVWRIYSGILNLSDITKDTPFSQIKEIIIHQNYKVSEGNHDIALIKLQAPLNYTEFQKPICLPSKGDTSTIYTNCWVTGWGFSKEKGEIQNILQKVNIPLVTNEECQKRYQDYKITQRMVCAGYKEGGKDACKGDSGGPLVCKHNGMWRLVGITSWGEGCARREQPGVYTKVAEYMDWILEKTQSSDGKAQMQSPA

Trypsin [6] = molecular target: T2, Trypsin; assay: display phage binding to immobilised protease
T2 construct: also called trypsin-agarose beads
T2 sequence (P00760 24-246): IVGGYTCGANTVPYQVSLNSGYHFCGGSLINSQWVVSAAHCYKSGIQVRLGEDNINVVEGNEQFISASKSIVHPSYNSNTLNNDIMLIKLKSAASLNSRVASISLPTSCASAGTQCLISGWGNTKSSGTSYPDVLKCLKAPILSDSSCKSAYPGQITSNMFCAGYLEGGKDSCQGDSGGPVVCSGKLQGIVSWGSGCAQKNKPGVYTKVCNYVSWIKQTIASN

Trypsin [7] = molecular target: T2, Trypsin; assay: display phage binding to immobilised trypsin, 2 washes
human plasmin [8] = molecular target: T1, human plasmin; assay: inhibition of plasmin by soluble protein; measured Ki used as KD
human plasmin [9] = molecular target: T1, human plasmin; assay: as above; remark: listed apart in the source

T1 sequence (P00747 97-810 limits assumed): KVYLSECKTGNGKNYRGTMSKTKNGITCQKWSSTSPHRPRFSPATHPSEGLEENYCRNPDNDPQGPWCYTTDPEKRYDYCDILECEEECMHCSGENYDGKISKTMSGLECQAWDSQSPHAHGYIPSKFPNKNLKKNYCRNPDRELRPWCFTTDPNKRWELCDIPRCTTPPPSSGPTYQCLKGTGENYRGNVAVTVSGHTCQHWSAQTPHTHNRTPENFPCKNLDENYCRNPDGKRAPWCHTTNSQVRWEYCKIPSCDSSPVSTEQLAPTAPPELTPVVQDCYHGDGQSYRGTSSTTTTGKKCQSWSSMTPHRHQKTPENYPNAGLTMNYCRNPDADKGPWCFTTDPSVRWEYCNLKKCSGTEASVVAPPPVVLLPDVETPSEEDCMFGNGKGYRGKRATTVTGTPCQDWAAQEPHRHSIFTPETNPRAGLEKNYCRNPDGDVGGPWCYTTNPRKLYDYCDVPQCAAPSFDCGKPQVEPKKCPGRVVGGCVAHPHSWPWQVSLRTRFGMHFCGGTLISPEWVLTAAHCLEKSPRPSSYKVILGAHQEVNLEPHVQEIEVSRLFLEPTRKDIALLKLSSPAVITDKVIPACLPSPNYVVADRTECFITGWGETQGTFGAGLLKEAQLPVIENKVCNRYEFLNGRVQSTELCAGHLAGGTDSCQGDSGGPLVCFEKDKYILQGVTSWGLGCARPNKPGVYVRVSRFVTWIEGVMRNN

| Binder | Phage Binding (relative to BPTI phage) (human plasmin [2]) | Kd (human plasmin [3]) | further results |
| --- | --- | --- | --- |
| QS4, yeast-expressed soluble protein (designed binder, Expressed in S. cerevisiae from a mat alpha fusion, purified on trypsin-agarose; also called QS4 variant) EAAEMHSFCAFKADDGPCKARFERFFFNIFTRQCEQFYYGGCDGNQNRFESLEECKKMCTRD |  |  | Kd (human plasmin [1]): 2000 pM |
| SPI08 (designed binder, also called isolate 08) MHSFCAFKADGGPCRARFERFFFNIFTRQCEEFIYGGCEGNQNRFESLEECKKMCTRD | 2.6 fold of BPTI phage |  |  |
| SPI43 (designed binder) MHSFCAFKAETGPCRGKFDRWFFNIFTRQCESFHYGGCKGNQNRFESLEECKKMCTRD |  | > 4000 pM |  |
| QS4 displayed on gIIIp of M13 (designed binder, also called phage that display the LACI-K1 derivative QS4) MHSFCAFKADDGPCKARFERFFFNIFTRQCEQFYYGGCDGNQNRFESLEECKKMCTRD |  |  | fold binding to plasmin beads over other protease targets (human plasmin [4]): ≥ 50 fold; relative binding (LACI-K1 phage = unit) (human plasmin [5]): 52 fold of LACI-K1 phage; relative binding (LACI-K1 phage = unit) (Thrombin): 0.7 fold of LACI-K1 phage; relative binding (LACI-K1 phage = unit) (Kallikrein): 0.9 fold of LACI-K1 phage; relative binding (LACI-K1 phage = unit) (Trypsin [6]): 4.5 fold of LACI-K1 phage; relative binding (LACI-K1 phage = unit) (Trypsin [7]): 0.5 fold of LACI-K1 phage |
| SPI22 (designed binder, also called isolate 22) MHSFCAFKADGGPCKGKFPRFFFNIFTRQCEEFIYGGCEGNQNRFESLEECKKMCTRD | 2 fold of BPTI phage | > 2000 pM |  |
| SPI54 (designed binder) MHSFCAFKADSGPCRARFDRWFFNIFTRQCTRFPYGGCGGNQNRFESLEECKKMCTRD |  | > 4000 pM |  |
| SPI51 (designed binder) MHSFCAFKADAGPCRAKFERFFFNIFTRQCTAFFYGGCGGNQNRFESLEECKKMCTRD |  | ~500 pM |  |
| SPI15 (designed binder, 41 for the whole domain; 90 for the printed residues 10-21; also called SP115; isolate 15) MHSFCAFKAESGPCRARFDRWFFNIFTRQCEEFIYGGCEGNQNRFESLEECKKMCTRD | 2.5 fold of BPTI phage |  |  |
| SPI17 (designed binder, 104 for the printed residues 10-21) MHSFCAFKAEVGPCRARIQRFFFNIFTRQCEEFIYGGCEGNQNRFESLEECKKMCTRD | 0.09 fold of BPTI phage |  |  |
| SPI21 (designed binder, 116 for the printed residues 10-21) MHSFCAFKADSGACKGKFERWFFNIFTRQCEEFIYGGCEGNQNRFESLEECKKMCTRD | 0.38 fold of BPTI phage |  |  |
| SPI47 (designed binder) MHSFCAFKADAGPCRAKFERFFFNIFTRQCEEFIYGGCEGNQNRFESLEECKKMCTRD |  | ~800 pM |  |
| SPI01 (designed binder, 112 for the printed residues 10-21) MHSFCAFKADSGACRAMFHRFFFNIFTRQCEEFIYGGCEGNQNRFESLEECKKMCTRD | 0.25 fold of BPTI phage |  |  |
| SPI23 (designed binder, also called isolate 23) MHSFCAFKAEGGPCRAKFQRWFFNIFTRQCEEFIYGGCEGNQNRFESLEECKKMCTRD | 1.25 fold of BPTI phage | ~500 pM |  |
| SPI16 (designed binder, 110 for the printed residues 10-21) MHSFCAFKAEVGACKGRFHRWFFNIFTRQCEEFIYGGCEGNQNRFESLEECKKMCTRD | 0.22 fold of BPTI phage |  |  |
| SPI11 (Selected Plasmin Inhibitor#11) (designed binder, also called isolate 11) MHSFCAFKAETGPCRARFDRWFFNIFTRQCEEFIYGGCEGNQNRFESLEECKKMCTRD | 3.2 fold of BPTI phage |  | Kd (human plasmin [8]): 88 pM; Kd (human plasmin [9]): 88 pM |
| SPI02 (designed binder, 102 for the printed residues 10-21) MHSFCAFKADSGPCRGRFERFFFNIFTRQCEEFIYGGCEGNQNRFESLEECKKMCTRD | 0.83 fold of BPTI phage |  |  |
| SPI03 (designed binder, 108 for the printed residues 10-21) MHSFCAFKADSGPCKARFDRWFFNIFTRQCEEFIYGGCEGNQNRFESLEECKKMCTRD | 0.48 fold of BPTI phage |  |  |
| SPI05 (designed binder, 105 for the printed residues 10-21) MHSFCAFKAESGPCRAKFARFFFNIFTRQCEEFIYGGCEGNQNRFESLEECKKMCTRD | 0.64 fold of BPTI phage |  |  |
